Reference: article PMC7239654, “R-spondins engage heparan sulfate proteoglycans to potentiate WNT signaling” (eLife, 2020)

What was measured:
[1] = target: T1, glycosylated GPC4 (Homo sapiens (assumed), UniProt O75487, heparan sulfate chains (glycosylated)); test: ELISA; 96-well plate coated with 5 μg/ml of the GPC protein; HS20 added in serial 2-fold dilutions starting from 1 μg/ml, 1 hr at RT; washed with PBST; detected with goat anti-human kappa chain HRP conjugate and TMB, absorbance at 450 nm; conditions: both partners purified
T1 construct: glypican 4 (GPC4), glycosylated recombinant protein, R and D Systems Cat. # 9195-GP; also called glypican 4; source: bought: R and D Systems
T1 sequence (O75487 19-529): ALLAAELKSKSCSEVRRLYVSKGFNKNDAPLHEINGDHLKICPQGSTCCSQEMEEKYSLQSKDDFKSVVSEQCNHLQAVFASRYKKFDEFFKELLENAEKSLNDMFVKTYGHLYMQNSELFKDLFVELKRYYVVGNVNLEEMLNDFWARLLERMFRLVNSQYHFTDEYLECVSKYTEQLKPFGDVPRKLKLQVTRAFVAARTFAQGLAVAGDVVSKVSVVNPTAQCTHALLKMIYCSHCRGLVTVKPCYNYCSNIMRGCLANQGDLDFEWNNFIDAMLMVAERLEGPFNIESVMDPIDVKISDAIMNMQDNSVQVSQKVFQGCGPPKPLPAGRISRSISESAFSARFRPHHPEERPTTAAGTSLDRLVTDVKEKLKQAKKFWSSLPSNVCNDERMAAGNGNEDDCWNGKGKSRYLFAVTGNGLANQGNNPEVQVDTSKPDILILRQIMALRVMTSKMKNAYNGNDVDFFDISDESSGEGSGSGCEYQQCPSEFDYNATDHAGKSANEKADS

[2] = target: T2, glycosylated GPC3 (Homo sapiens (assumed), UniProt P51654, heparan sulfate chains (glycosylated)); test: as above; conditions: both partners purified
T2 construct: glypican 3 (GPC3), glycosylated recombinant protein, R and D Systems Cat. # 2119-GP; also called glypican 3; source: bought: R and D Systems
T2 sequence (P51654 25-580): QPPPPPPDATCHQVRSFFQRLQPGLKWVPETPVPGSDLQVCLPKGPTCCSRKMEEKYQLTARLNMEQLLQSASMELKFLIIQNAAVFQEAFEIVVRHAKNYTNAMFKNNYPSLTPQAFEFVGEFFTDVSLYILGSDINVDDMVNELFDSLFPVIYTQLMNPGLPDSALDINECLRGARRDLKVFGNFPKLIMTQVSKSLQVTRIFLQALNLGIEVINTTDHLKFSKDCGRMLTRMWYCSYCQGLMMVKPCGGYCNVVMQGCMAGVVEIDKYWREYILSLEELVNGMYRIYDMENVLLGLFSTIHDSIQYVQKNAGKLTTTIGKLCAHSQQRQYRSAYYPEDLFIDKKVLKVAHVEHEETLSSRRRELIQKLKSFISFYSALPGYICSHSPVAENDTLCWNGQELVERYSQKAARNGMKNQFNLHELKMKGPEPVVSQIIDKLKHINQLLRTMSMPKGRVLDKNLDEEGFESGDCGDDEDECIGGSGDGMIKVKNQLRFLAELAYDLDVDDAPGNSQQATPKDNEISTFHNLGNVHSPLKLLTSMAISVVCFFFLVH

B1: HS20 scFv (scFv, V domains shown)
VH: EVQLLESGGGLVQPGGSLRLSCAASGFTFSSYAMSWVRQAPGKGLEWVSTIQKQGLPTQYADSVKGRFTISRDNSKNTLYLQMNSLRAEDTAVYYCAKNRAKFDYWGQGTLVTVSS
VL: DIQMTQSPSSLSASVGDRVTITCRASQSISSYLNWYQQKPGKAPKLLIYAASMLQSGVPSRFSGSGSGTDFTLTISSLQPEDFATYYCQQNRGFPLTFGQGTKVEIK
notes: it was detected through its human kappa chain
- binding result [1]: binds
- binding result [2]: binds
